Results from paper PMC9482650, “Quantitative fragmentomics allow affinity mapping of interactomes” (Nature Communications, 2022).

T1: APBA1_1, Q02410
T1 sequence (Q02410 651-752, limits assumed, looked up): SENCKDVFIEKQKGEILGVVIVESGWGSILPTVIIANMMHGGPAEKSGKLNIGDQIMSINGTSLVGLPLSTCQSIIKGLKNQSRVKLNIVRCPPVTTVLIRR

T2: APBA2_1, Q99767
T2 sequence (Q99767 563-664, limits assumed, looked up): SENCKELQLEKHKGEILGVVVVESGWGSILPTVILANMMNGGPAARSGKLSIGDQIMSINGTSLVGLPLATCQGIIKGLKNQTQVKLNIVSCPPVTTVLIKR

T3: ARHGAP21, Q5T5U3
T3 sequence (Q5T5U3 45-169, limits assumed, looked up): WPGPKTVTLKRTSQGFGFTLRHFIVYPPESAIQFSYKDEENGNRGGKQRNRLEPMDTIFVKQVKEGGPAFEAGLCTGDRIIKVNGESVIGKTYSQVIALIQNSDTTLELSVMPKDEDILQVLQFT

T4: MPDZ_10, O75970
T4 sequence (O75970 1624-1722, limits assumed, looked up): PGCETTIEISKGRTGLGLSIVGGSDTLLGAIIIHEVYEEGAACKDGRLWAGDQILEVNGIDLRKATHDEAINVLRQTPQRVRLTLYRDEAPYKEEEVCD

T5: MPDZ_12, O75970
T5 sequence (O75970 1857-1958, limits assumed, looked up): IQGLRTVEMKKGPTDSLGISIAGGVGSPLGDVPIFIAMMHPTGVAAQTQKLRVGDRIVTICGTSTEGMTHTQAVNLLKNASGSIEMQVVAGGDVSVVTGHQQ

T6: MPDZ_5, O75970
T6 sequence (O75970 695-796, limits assumed, looked up): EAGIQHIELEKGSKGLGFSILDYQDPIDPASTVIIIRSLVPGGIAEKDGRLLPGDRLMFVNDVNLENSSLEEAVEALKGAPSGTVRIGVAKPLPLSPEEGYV

T7: PARD3B_1, Q8TEW8
T7 sequence (Q8TEW8 196-299, limits assumed, looked up): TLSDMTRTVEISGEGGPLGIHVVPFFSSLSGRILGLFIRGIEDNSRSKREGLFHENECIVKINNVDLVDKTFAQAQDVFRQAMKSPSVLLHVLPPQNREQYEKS

T8: RADIL, Q96JH8
T8 sequence (Q96JH8 971-1071, limits assumed, looked up): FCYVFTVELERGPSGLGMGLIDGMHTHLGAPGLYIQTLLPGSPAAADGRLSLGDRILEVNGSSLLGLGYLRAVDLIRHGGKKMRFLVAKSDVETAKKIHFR

T9: RAPGEF6, Q8TEU7
T9 sequence (Q8TEU7 525-625, limits assumed, looked up): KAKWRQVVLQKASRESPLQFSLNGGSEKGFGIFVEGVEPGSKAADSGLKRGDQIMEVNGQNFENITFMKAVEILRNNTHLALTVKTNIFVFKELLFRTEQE

T10: SHANK1, Q9Y566
T10 sequence (Q9Y566 658-767, limits assumed, looked up): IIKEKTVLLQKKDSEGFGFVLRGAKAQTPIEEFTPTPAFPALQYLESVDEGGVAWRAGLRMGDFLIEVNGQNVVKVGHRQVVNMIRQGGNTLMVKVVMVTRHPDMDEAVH


molecular target: AHNAK1, Q09666; test: holdup assay; design: key: below the threshold = too weak to quantify, mostly under pKd 3.1 to 4; conditions: plain residues with an end cap or a label only (N-terminal biotin on a linker: ado-ado)
Sequence (Q09666 4-100): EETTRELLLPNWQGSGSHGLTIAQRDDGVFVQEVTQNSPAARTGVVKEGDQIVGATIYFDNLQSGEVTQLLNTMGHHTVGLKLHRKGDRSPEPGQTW

Binder | pKd
FVHPILQSAV [PRKCA, P17252] | below the threshold

molecular target: T1, APBA1_1, Q02410; test: holdup assay; design: key: below the threshold = too weak to quantify, mostly under pKd 3.1 to 4; conditions: plain residues with an end cap or a label only (N-terminal biotin on a linker: ado-ado)

Binder | pKd
FVHPILQSAV [PRKCA, P17252] | below the threshold

molecular target: T2, APBA2_1, Q99767; test: holdup assay; design: key: below the threshold = too weak to quantify, mostly under pKd 3.1 to 4; conditions: plain residues with an end cap or a label only (N-terminal biotin on a linker: ado-ado)

Binder | pKd
FVHPILQSAV [PRKCA, P17252] | below the threshold

molecular target: T3, ARHGAP21, Q5T5U3; test: holdup assay; design: key: below the threshold = too weak to quantify, mostly under pKd 3.1 to 4; conditions: plain residues with an end cap or a label only (N-terminal biotin on a linker: ado-ado)

Binder | pKd
FVHPILQSAV [PRKCA, P17252] | 3.84

molecular target: DLG1_3, Q12959; test: holdup assay; design: key: below the threshold = too weak to quantify, mostly under pKd 3.1 to 4; conditions: plain residues with an end cap or a label only (N-terminal biotin on a linker: ado-ado)
Sequence (Q12959 457-571): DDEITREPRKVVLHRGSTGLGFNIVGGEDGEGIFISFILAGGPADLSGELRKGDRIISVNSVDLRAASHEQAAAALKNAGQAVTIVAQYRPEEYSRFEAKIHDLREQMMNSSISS

Binder | pKd
FVHPILQSAV [PRKCA, P17252] | 3.85

molecular target: DLG5_1, Q8TDM6; test: holdup assay; design: key: below the threshold = too weak to quantify, mostly under pKd 3.1 to 4; conditions: plain residues with an end cap or a label only (N-terminal biotin on a linker: ado-ado)
Sequence (Q8TDM6 617-713): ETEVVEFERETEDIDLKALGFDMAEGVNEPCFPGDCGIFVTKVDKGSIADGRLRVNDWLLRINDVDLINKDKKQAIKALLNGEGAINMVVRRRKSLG

Binder | pKd
FVHPILQSAV [PRKCA, P17252] | below the threshold

molecular target: FRMPD2_2, Q68DX3; test: holdup assay; design: key: below the threshold = too weak to quantify, mostly under pKd 3.1 to 4; conditions: plain residues with an end cap or a label only (N-terminal biotin on a linker: ado-ado)
Sequence (Q68DX3 944-1038): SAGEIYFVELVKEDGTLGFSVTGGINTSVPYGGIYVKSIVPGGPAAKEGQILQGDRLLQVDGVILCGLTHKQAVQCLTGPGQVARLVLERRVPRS

Binder | pKd
FVHPILQSAV [PRKCA, P17252] | 3.73

molecular target: GOPC, Q9HD26; test: holdup assay; design: key: below the threshold = too weak to quantify, mostly under pKd 3.1 to 4; conditions: plain residues with an end cap or a label only (N-terminal biotin on a linker: ado-ado)

Binder | pKd
FVHPILQSAV [PRKCA, P17252] | 4

molecular target: GRASP, Q7Z6J2; test: holdup assay; design: key: below the threshold = too weak to quantify, mostly under pKd 3.1 to 4; conditions: plain residues with an end cap or a label only (N-terminal biotin on a linker: ado-ado)
Sequence (Q7Z6J2 96-193): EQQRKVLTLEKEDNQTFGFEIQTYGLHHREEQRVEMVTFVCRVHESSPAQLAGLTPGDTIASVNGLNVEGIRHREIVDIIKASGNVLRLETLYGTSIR

Binder | pKd
FVHPILQSAV [PRKCA, P17252] | 5.13

molecular target: GRID2IP_1, A4D2P6; test: holdup assay; design: key: below the threshold = too weak to quantify, mostly under pKd 3.1 to 4; conditions: plain residues with an end cap or a label only (N-terminal biotin on a linker: ado-ado)
Sequence (A4D2P6 1-87): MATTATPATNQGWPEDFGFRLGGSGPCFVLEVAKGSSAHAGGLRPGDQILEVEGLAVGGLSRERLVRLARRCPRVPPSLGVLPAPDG

Binder | pKd
FVHPILQSAV [PRKCA, P17252] | below the threshold

molecular target: IL16_1, Q14005; test: holdup assay; design: key: below the threshold = too weak to quantify, mostly under pKd 3.1 to 4; conditions: plain residues with an end cap or a label only (N-terminal biotin on a linker: ado-ado)
Sequence (Q14005 210-306): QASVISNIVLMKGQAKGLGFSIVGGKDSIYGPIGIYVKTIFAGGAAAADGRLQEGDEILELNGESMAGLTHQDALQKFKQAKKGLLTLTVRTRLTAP

Binder | pKd
FVHPILQSAV [PRKCA, P17252] | 4.33

molecular target: Inadl_9, Q8NI35; test: holdup assay; design: key: below the threshold = too weak to quantify, mostly under pKd 3.1 to 4; conditions: plain residues with an end cap or a label only (N-terminal biotin on a linker: ado-ado)
Sequence (Q8NI35 1530-1615): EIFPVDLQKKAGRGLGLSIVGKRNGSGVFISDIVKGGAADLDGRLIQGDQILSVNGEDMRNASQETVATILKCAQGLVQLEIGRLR

Binder | pKd
FVHPILQSAV [PRKCA, P17252] | below the threshold

molecular target: LAP2, Q96RT1; test: holdup assay; design: key: below the threshold = too weak to quantify, mostly under pKd 3.1 to 4; conditions: plain residues with an end cap or a label only (N-terminal biotin on a linker: ado-ado)
Sequence (Q96RT1 other isoform, or with tags, fused parts or gaps): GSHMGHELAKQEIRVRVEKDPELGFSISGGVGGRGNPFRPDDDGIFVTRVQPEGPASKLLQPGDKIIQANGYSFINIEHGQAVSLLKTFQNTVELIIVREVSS

Binder | pKd
FVHPILQSAV [PRKCA, P17252] | 4.13

molecular target: LNX1_1, Q8TBB1; test: holdup assay; design: key: below the threshold = too weak to quantify, mostly under pKd 3.1 to 4; conditions: plain residues with an end cap or a label only (N-terminal biotin on a linker: ado-ado)
Sequence (Q8TBB1 261-371): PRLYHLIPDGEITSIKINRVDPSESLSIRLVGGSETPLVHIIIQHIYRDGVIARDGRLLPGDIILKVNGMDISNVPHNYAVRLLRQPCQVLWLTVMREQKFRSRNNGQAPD

Binder | pKd
FVHPILQSAV [PRKCA, P17252] | 4.02

molecular target: MAGI2_4, Q86UL8; test: holdup assay; design: key: below the threshold = too weak to quantify, mostly under pKd 3.1 to 4; conditions: plain residues with an end cap or a label only (N-terminal biotin on a linker: ado-ado)
Sequence (Q86UL8 772-865): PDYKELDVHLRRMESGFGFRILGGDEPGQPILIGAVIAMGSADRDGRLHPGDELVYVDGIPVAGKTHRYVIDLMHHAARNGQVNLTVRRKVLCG

Binder | pKd
FVHPILQSAV [PRKCA, P17252] | below the threshold

molecular target: MAGI3_2, Q5TCQ9; test: holdup assay; design: key: below the threshold = too weak to quantify, mostly under pKd 3.1 to 4; conditions: plain residues with an end cap or a label only (N-terminal biotin on a linker: ado-ado)
Sequence (Q5TCQ9 398-503): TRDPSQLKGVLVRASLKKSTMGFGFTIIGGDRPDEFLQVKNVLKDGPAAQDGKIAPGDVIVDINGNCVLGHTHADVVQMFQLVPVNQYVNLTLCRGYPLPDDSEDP

Binder | pKd
FVHPILQSAV [PRKCA, P17252] | 4.32

molecular target: T4, MPDZ_10, O75970; test: holdup assay; design: key: below the threshold = too weak to quantify, mostly under pKd 3.1 to 4; conditions: plain residues with an end cap or a label only (N-terminal biotin on a linker: ado-ado)

Binder | pKd
FVHPILQSAV [PRKCA, P17252] | below the threshold

molecular target: T5, MPDZ_12, O75970; test: holdup assay; design: key: below the threshold = too weak to quantify, mostly under pKd 3.1 to 4; conditions: plain residues with an end cap or a label only (N-terminal biotin on a linker: ado-ado)

Binder | pKd
FVHPILQSAV [PRKCA, P17252] | below the threshold

molecular target: T6, MPDZ_5, O75970; test: holdup assay; design: key: below the threshold = too weak to quantify, mostly under pKd 3.1 to 4; conditions: plain residues with an end cap or a label only (N-terminal biotin on a linker: ado-ado)

Binder | pKd
FVHPILQSAV [PRKCA, P17252] | below the threshold

molecular target: NHERF4_1, Q86UT5-2; test: holdup assay; design: key: below the threshold = too weak to quantify, mostly under pKd 3.1 to 4; conditions: plain residues with an end cap or a label only (N-terminal biotin on a linker: ado-ado)
Sequence (Q86UT5 other isoform, or with tags, fused parts or gaps): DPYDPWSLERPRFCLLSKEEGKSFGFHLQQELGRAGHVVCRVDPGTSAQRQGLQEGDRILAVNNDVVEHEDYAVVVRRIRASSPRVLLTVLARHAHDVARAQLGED

Binder | pKd
FVHPILQSAV [PRKCA, P17252] | 3.78

molecular target: NHERF4_2, Q86UT5; test: holdup assay; design: key: below the threshold = too weak to quantify, mostly under pKd 3.1 to 4; conditions: plain residues with an end cap or a label only (N-terminal biotin on a linker: ado-ado)
Sequence (Q86UT5 220-308): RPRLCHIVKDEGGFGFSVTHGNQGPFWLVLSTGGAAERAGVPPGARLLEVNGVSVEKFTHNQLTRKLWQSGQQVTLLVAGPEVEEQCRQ

Binder | pKd
FVHPILQSAV [PRKCA, P17252] | below the threshold

molecular target: T7, PARD3B_1, Q8TEW8; test: holdup assay; design: key: below the threshold = too weak to quantify, mostly under pKd 3.1 to 4; conditions: plain residues with an end cap or a label only (N-terminal biotin on a linker: ado-ado)

Binder | pKd
FVHPILQSAV [PRKCA, P17252] | below the threshold

molecular target: T8, RADIL, Q96JH8; test: holdup assay; design: key: below the threshold = too weak to quantify, mostly under pKd 3.1 to 4; conditions: plain residues with an end cap or a label only (N-terminal biotin on a linker: ado-ado)

Binder | pKd
FVHPILQSAV [PRKCA, P17252] | 3.57

molecular target: T9, RAPGEF6, Q8TEU7; test: holdup assay; design: key: below the threshold = too weak to quantify, mostly under pKd 3.1 to 4; conditions: plain residues with an end cap or a label only (N-terminal biotin on a linker: ado-ado)

Binder | pKd
FVHPILQSAV [PRKCA, P17252] | below the threshold

molecular target: SCRIB_1, Q14160; test: holdup assay; design: key: below the threshold = too weak to quantify, mostly under pKd 3.1 to 4; conditions: plain residues with an end cap or a label only (N-terminal biotin on a linker: ado-ado)
Sequence (Q14160 718-814): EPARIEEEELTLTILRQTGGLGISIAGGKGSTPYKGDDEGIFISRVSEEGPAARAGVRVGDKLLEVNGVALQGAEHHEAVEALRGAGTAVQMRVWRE

Binder | pKd
FVHPILQSAV [PRKCA, P17252] | 4.57

molecular target: T10, SHANK1, Q9Y566; test: holdup assay; design: key: below the threshold = too weak to quantify, mostly under pKd 3.1 to 4; conditions: plain residues with an end cap or a label only (N-terminal biotin on a linker: ado-ado)

Binder | pKd
FVHPILQSAV [PRKCA, P17252] | 4.34
